In publication PMC6555819, “Comprehensive study of nuclear receptor DNA binding provides a revised framework for understanding receptor specificity”:

Target: PPARa:RXRa (Homo sapiens, UniProt Q07869;P19793 full;full)
Assay: no ligand; PBM; 270 nM : 90 nM RXRa; PBS pH 7.4, 2% milk, 0.02% Triton X-100, 1 mM DTT, BSA, 0.4 mg/ml salmon testes DNA
Conditions: tags: GST kept;His cleaved; copies: 1;1; label: surface-attached array probe
In short: (§1)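 Ligand-free nuclear receptor dimers were bound for 1 h to custom Agilent 4×180K protein-binding microarrays. Detection used antibodies against each partner (one per run). Binding z-scores rest on regression-normalized fluorescence, with random background probes as the reference.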

Chain of PPARa:RXRa (Q07869 whole entry, chain 1 of 2): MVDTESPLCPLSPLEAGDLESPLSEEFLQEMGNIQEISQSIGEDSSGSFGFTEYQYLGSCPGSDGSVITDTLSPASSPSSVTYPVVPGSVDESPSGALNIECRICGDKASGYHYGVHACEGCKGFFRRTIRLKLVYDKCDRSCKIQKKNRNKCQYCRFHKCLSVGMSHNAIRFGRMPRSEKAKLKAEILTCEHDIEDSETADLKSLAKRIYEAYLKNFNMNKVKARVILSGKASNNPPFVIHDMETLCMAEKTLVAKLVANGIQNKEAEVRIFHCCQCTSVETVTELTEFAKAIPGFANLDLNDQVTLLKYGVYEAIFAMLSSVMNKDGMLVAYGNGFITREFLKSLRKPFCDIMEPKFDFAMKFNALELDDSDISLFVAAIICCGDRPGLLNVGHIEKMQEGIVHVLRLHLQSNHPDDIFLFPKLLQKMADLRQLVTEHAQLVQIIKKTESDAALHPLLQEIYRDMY
Chain of PPARa:RXRa (P19793 whole entry, chain 2 of 2): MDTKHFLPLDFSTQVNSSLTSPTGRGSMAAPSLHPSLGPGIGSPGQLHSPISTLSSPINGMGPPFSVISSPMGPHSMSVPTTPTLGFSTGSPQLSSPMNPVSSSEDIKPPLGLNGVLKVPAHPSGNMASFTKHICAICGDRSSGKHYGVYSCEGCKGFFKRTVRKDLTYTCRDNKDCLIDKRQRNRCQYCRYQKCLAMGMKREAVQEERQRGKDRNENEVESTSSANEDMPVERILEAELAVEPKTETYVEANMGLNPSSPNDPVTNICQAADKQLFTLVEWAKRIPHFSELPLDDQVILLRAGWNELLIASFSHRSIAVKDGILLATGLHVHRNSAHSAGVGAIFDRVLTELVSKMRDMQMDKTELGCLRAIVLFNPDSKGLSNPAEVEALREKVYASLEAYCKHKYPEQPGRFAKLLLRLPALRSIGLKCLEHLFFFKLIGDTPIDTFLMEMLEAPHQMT

Row | Binder | binding signal
1 | NRC3_random_hg19_221_o1 (dsDNA) DNA 1: GCCTTGAATCCAGGAGGCAGAGGCTGCAGTGAGCTGGCGATTGACAGCGTAGAATGAAGG DNA 2: CCTTCATTCTACGCTGTCAATCGCCAGCTCACTGCAGCCTCTGCCTCCTGGATTCAAGGC | -0.29 PBM z-score against 500 random probes
2 | NRC3_random_hg19_367_o1 (dsDNA) DNA 1: GCATCTGTGTAACCAGCACCACAGTTAAGATACAGAGCGATTGACAGCGTAGAATGAAGG DNA 2: CCTTCATTCTACGCTGTCAATCGCTCTGTATCTTAACTGTGGTGCTGGTTACACAGATGC | -0.28 PBM z-score against 500 random probes
3 | NRC3_random_hg19_44_o1 (dsDNA) DNA 1: GCATTTGAGATCTCAGTTTCTGCATACTGAATCACCGCGATTGACAGCGTAGAATGAAGG DNA 2: CCTTCATTCTACGCTGTCAATCGCGGTGATTCAGTATGCAGAAACTGAGATCTCAAATGC | -0.2 PBM z-score against 500 random probes
4 | NRC3_random_hg19_167_o1 (dsDNA) DNA 1: GCTTTGAAGACACTGAAGGAGTGAGCCATTTGGATCGCGATTGACAGCGTAGAATGAAGG DNA 2: CCTTCATTCTACGCTGTCAATCGCGATCCAAATGGCTCACTCCTTCAGTGTCTTCAAAGC | -0.13 PBM z-score against 500 random probes
5 | NRC3_random_hg19_188_o1 (dsDNA) DNA 1: GCGCTAGGATTACAGGCACAAGCCACCGTGCCCAGCGCGATTGACAGCGTAGAATGAAGG DNA 2: CCTTCATTCTACGCTGTCAATCGCGCTGGGCACGGTGGCTTGTGCCTGTAATCCTAGCGC | -0.72 PBM z-score against 500 random probes
6 | NRC3_random_hg19_172_o1 (dsDNA) DNA 1: GCCAGTACTGTTGCTAGAACTACAACCTGTATGCTGGCGATTGACAGCGTAGAATGAAGG DNA 2: CCTTCATTCTACGCTGTCAATCGCCAGCATACAGGTTGTAGTTCTAGCAACAGTACTGGC | -0.42 PBM z-score against 500 random probes
7 | NRC3_random_hg19_99_o1 (dsDNA) DNA 1: GCTGTTCTTACTGAGGCGTTTGCTGCCTAGCTCCCTGCGATTGACAGCGTAGAATGAAGG DNA 2: CCTTCATTCTACGCTGTCAATCGCAGGGAGCTAGGCAGCAAACGCCTCAGTAAGAACAGC | -0.37 PBM z-score against 500 random probes
8 | NRC3_random_hg19_200_o1 (dsDNA) DNA 1: GCGCAGGAGAATCAGGCAGGGAGGTTGCAGTGAGCCGCGATTGACAGCGTAGAATGAAGG DNA 2: CCTTCATTCTACGCTGTCAATCGCGGCTCACTGCAACCTCCCTGCCTGATTCTCCTGCGC | -0.47 PBM z-score against 500 random probes
9 | NRC3_random_hg19_326_o1 (dsDNA) DNA 1: GCATCAGGTCTGCACCTGCAGATGGCGAGGGTTGGCGCGATTGACAGCGTAGAATGAAGG DNA 2: CCTTCATTCTACGCTGTCAATCGCGCCAACCCTCGCCATCTGCAGGTGCAGACCTGATGC | -0.67 PBM z-score against 500 random probes
10 | NRC3_random_hg19_303_o1 (dsDNA) DNA 1: GCAAGATCTCTACAATGAATTGTACCAATGCTCCAGGCGATTGACAGCGTAGAATGAAGG DNA 2: CCTTCATTCTACGCTGTCAATCGCCTGGAGCATTGGTACAATTCATTGTAGAGATCTTGC | -0.05 PBM z-score against 500 random probes
11 | NRC3_random_hg19_483_o1 (dsDNA) DNA 1: GCGAATGGAATAGAGTGGAATGCAGTGGAATGGAAAGCGATTGACAGCGTAGAATGAAGG DNA 2: CCTTCATTCTACGCTGTCAATCGCTTTCCATTCCACTGCATTCCACTCTATTCCATTCGC | -0.61 PBM z-score against 500 random probes
12 | NRC3_random_hg19_330_o1 (dsDNA) DNA 1: GCAGACTTTGCATCCTGCTGAGAACTGCTCTGAGAGGCGATTGACAGCGTAGAATGAAGG DNA 2: CCTTCATTCTACGCTGTCAATCGCCTCTCAGAGCAGTTCTCAGCAGGATGCAAAGTCTGC | -1.18 PBM z-score against 500 random probes
13 | NRC3_random_hg19_473_o1 (dsDNA) DNA 1: GCGCTACTCGGGAGGCTGAGGCAGGAGAATGGTGTGGCGATTGACAGCGTAGAATGAAGG DNA 2: CCTTCATTCTACGCTGTCAATCGCCACACCATTCTCCTGCCTCAGCCTCCCGAGTAGCGC | -1.24 PBM z-score against 500 random probes

Target: RARg:RXRa (Homo sapiens, UniProt P13631;P19793 full;full)
Assay: as above
Conditions: tags: His kept;His cleaved; copies: 1;1; label: surface-attached array probe
In short: as §1

Chain of RARg:RXRa (P13631 whole entry, chain 1 of 2): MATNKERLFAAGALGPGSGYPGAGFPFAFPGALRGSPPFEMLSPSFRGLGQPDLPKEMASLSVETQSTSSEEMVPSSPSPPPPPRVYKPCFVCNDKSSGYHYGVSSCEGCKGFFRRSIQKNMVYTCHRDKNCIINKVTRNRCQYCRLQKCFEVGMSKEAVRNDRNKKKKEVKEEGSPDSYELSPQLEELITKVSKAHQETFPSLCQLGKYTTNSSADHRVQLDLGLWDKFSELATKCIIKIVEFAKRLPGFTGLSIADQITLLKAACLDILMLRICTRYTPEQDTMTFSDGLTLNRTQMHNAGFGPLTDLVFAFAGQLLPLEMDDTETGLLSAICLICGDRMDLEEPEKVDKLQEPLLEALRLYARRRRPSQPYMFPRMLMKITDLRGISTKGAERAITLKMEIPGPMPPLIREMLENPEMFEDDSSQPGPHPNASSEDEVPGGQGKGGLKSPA
Chain of RARg:RXRa (P19793 whole entry, chain 2 of 2): as the sequence (P19793 whole entry, chain 2 of 2) above

Row | Binder | binding signal
14 | NRC3_wobSeed134_DR5_T20A_o1 (dsDNA) DNA 1: GCGCTGCTAGGTCAACTGAAGGTCAGCTAAAGCTCGGCGATTGACAGCGTAGAATGAAGG DNA 2: CCTTCATTCTACGCTGTCAATCGCCGAGCTTTAGCTGACCTTCAGTTGACCTAGCAGCGC | 7.99 PBM z-score against 500 random probes
15 | NRC3_wobSeed134_DR5_T20G_o1 (dsDNA) DNA 1: GCGCTGCTAGGTCAACTGAGGGTCAGCTAAAGCTCGGCGATTGACAGCGTAGAATGAAGG DNA 2: CCTTCATTCTACGCTGTCAATCGCCGAGCTTTAGCTGACCCTCAGTTGACCTAGCAGCGC | 7.66 PBM z-score against 500 random probes
16 | NRC3_wobSeed134_DR5_C24G_o1 (dsDNA) DNA 1: GCGCTGCTAGGTCAACTGATGGTGAGCTAAAGCTCGGCGATTGACAGCGTAGAATGAAGG DNA 2: CCTTCATTCTACGCTGTCAATCGCCGAGCTTTAGCTCACCATCAGTTGACCTAGCAGCGC | 4.58 PBM z-score against 500 random probes
17 | NRC3_wobSeed136_DR5_C23G_o1 (dsDNA) DNA 1: GCTAGCCTAGGTCATTCAGGGGGCAGTATAGAAAGCGCGATTGACAGCGTAGAATGAAGG DNA 2: CCTTCATTCTACGCTGTCAATCGCGCTTTCTATACTGCCCCCTGAATGACCTAGGCTAGC | 7.73 PBM z-score against 500 random probes
18 | NRC3_wobSeed136_DR5_T8A_o1 (dsDNA) DNA 1: GCTAGCCAAGGTCATTCAGGGGCCAGTATAGAAAGCGCGATTGACAGCGTAGAATGAAGG DNA 2: CCTTCATTCTACGCTGTCAATCGCGCTTTCTATACTGGCCCCTGAATGACCTTGGCTAGC | 7.41 PBM z-score against 500 random probes
19 | NRC3_wobSeed46_DR1_A8G_o1 (dsDNA) DNA 1: GCTTACCGAGGTGAAAGGTCGTTGATGCACGCCTTGGCGATTGACAGCGTAGAATGAAGG DNA 2: CCTTCATTCTACGCTGTCAATCGCCAAGGCGTGCATCAACGACCTTTCACCTCGGTAAGC | 4.52 PBM z-score against 500 random probes
20 | NRC3_wobSeed51_DR2_A12T_o1 (dsDNA) DNA 1: GCCCTCGGAGGTCAGAAGGTCAGAGCTGTCCGCTTTGCGATTGACAGCGTAGAATGAAGG DNA 2: CCTTCATTCTACGCTGTCAATCGCAAAGCGGACAGCTCTGACCTTCTGACCTCCGAGGGC | 7.6 PBM z-score against 500 random probes
21 | NRC3_wobSeed61_DR2_G15C_o1 (dsDNA) DNA 1: GCCGTCCAAGGTCACCAGGTCAGTGAAAGCGACGTGGCGATTGACAGCGTAGAATGAAGG DNA 2: CCTTCATTCTACGCTGTCAATCGCCACGTCGCTTTCACTGACCTGGTGACCTTGGACGGC | 7.32 PBM z-score against 500 random probes
22 | NRC3_wobSeed138_DR5_G15A_o1 (dsDNA) DNA 1: GCGATACAGGGTCAACTAGAGGCCAGAGTATGGAAAGCGATTGACAGCGTAGAATGAAGG DNA 2: CCTTCATTCTACGCTGTCAATCGCTTTCCATACTCTGGCCTCTAGTTGACCCTGTATCGC | 7.73 PBM z-score against 500 random probes
23 | NRC3_wobSeed138_DR5_C23G_o1 (dsDNA) DNA 1: GCGATACAGGGTCAGCTAGAGGGCAGAGTATGGAAAGCGATTGACAGCGTAGAATGAAGG DNA 2: CCTTCATTCTACGCTGTCAATCGCTTTCCATACTCTGCCCTCTAGCTGACCCTGTATCGC | 7.69 PBM z-score against 500 random probes
24 | NRC3_wobSeed122_DR5_T9G_o1 (dsDNA) DNA 1: GCGCTAGTGGGTCAGTAAAAGGTCACACACCGGTCGGCGATTGACAGCGTAGAATGAAGG DNA 2: CCTTCATTCTACGCTGTCAATCGCCGACCGGTGTGTGACCTTTTACTGACCCACTAGCGC | 7.46 PBM z-score against 500 random probes
25 | NRC3_wobSeed121_DR5_A6C_o1 (dsDNA) DNA 1: GCCAACCTAGGTCACCGGAAGGTCAAAGTCCGCATGGCGATTGACAGCGTAGAATGAAGG DNA 2: CCTTCATTCTACGCTGTCAATCGCCATGCGGACTTTGACCTTCCGGTGACCTAGGTTGGC | 8.94 PBM z-score against 500 random probes
26 | NRC3_wobSeed133_DR5_A8G_o1 (dsDNA) DNA 1: GCCGTCCGAGGTCAATGCTAGGTCAGTGAAAGCATTGCGATTGACAGCGTAGAATGAAGG DNA 2: CCTTCATTCTACGCTGTCAATCGCAATGCTTTCACTGACCTAGCATTGACCTCGGACGGC | 8.1 PBM z-score against 500 random probes
27 | NRC3_wobSeed63_DR2_G25T_o1 (dsDNA) DNA 1: GCCGAACTAGGTCACCAGGACAGTTAAGAGGTTGGAGCGATTGACAGCGTAGAATGAAGG DNA 2: CCTTCATTCTACGCTGTCAATCGCTCCAACCTCTTAACTGTCCTGGTGACCTAGTTCGGC | 4.47 PBM z-score against 500 random probes
28 | NRC3_wobSeed49_DR2_G25C_o1 (dsDNA) DNA 1: GCCAAACTAGGTCAAGAGGTCAAACTCCGCTTCCCGGCGATTGACAGCGTAGAATGAAGG DNA 2: CCTTCATTCTACGCTGTCAATCGCCGGGAAGCGGAGTTTGACCTCTTGACCTAGTTTGGC | 8.44 PBM z-score against 500 random probes
29 | NRC3_wobSeed109_DR4_A16G_o1 (dsDNA) DNA 1: GCCGTCCAAGGTCATGGGAGGTCAGTGAAGACAGATGCGATTGACAGCGTAGAATGAAGG DNA 2: CCTTCATTCTACGCTGTCAATCGCATCTGTCTTCACTGACCTCCCATGACCTTGGACGGC | 7.38 PBM z-score against 500 random probes
30 | NRC3_wobSeed125_DR5_T24C_o1 (dsDNA) DNA 1: GCCCTTACGGGTCACTGACAGGTCATAGCATTTGGAGCGATTGACAGCGTAGAATGAAGG DNA 2: CCTTCATTCTACGCTGTCAATCGCTCCAAATGCTATGACCTGTCAGTGACCCGTAAGGGC | 7.68 PBM z-score against 500 random probes
31 | NRC3_wobSeed25_DR1_G24C_o1 (dsDNA) DNA 1: GCCAAACTAGGTCAAAGGTCAAACTCGAGCCAACCAGCGATTGACAGCGTAGAATGAAGG DNA 2: CCTTCATTCTACGCTGTCAATCGCTGGTTGGCTCGAGTTTGACCTTTGACCTAGTTTGGC | 9.32 PBM z-score against 500 random probes
32 | NRC3_wobSeed50_DR2_C25A_o1 (dsDNA) DNA 1: GCCCTAGTTGGTCAGGAGGTCACAAACCGGATATGAGCGATTGACAGCGTAGAATGAAGG DNA 2: CCTTCATTCTACGCTGTCAATCGCTCATATCCGGTTTGTGACCTCCTGACCAACTAGGGC | 4.55 PBM z-score against 500 random probes
